From article PMC8946150, “Microsphere Peptide-Based Immunoassay for the Detection of Recombinant Bovine Somatotropin in Injection Preparations” (Biosensors, 2022)
Positions count from the first letter of the chain named.

B1: rbST: 191 amino acid long protein hormone; rbST protein standard from NHPP (Dr. Parlow) (protein, UniProt P01246 27-217, looked up)
Somatotropin: AFPAMSLSGLFANAVLRAQHLHQLAADTFKEFERTYIPEGQRYSIQNTQVAFCFSETIPAPTGKNEAQQKSDLELLRISLLLIQSWLGPLQFLSRVFTNSLVFGTSDRVYEKLKDLEEGILALMRELEDGTPRAGQILKQTYDKFDTNMRSDDALLKNYGLLSCFRKDLHKTETYLRVMKCRRFGEASCAF
B2: eST: equine somatotropin from Bresagen (protein, UniProt P01245 27-216, looked up)
Somatotropin: FPAMPLSSLFANAVLRAQHLHQLAADTYKEFERAYIPEGQRYSIQNAQAAFCFSETIPAPTGKDEAQQRSDMELLRFSLLLIQSWLGPVQLLSRVFTNSLVFGTSDRVYEKLRDLEEGIQALMRELEDGSPRAGQILKQTYDKFDTNLRSDDALLKNYGLLSCFKKDLHKAETYLRVMKCRRFVESSCAF
B3: pST: Porcine Somatotropin from Sigma-Aldrich (protein, UniProt P01248 27-216, looked up)
Somatotropin: B2 Somatotropin with M72V, L91F, R113K

Key:
MAb 4H12 [1] = assay: Epitope mapping of rbST for MAb 4H12 (Pepscan, ELISA-type read out); type: binding; details: all four epitope designs (sets 1-4: linear 15-mers, double-Ala, α-helical loop mimics)
From the text: The entire sequence of rbST (Figure 1A) was epitope mapped for antibody 4H12 by Pepscan Presto BV (Lelystad, The Netherlands), as described before. Briefly, the rbST sequence was derived from the endogenous bST sequence by replacing the N-terminal alanine (Ala) with a methionine (Met) residue. With this rbST sequence, four sets of peptides were produced and used to determine the binding epitope of MAb 4H12: (i) linear peptides of 15 amino acids in length with an offset of one amino acid (set 1), (ii) linear peptides similar to set 1, with the amino acids on place 10 and 11 replaced by alanine (Ala); a native Ala present on place 10 and/or 11 was replaced by glycine (Gly) (set 2), (iii) α-helical loop mimics of 21 amino acids in length with an offset of one amino acid and cysteine residues on place 1 and 5 to enable connection with an α-helix-inducing mP2 chemical linkage of peptides onto scaffolds (CLIPS, set 3) and (iv) α-helical loop mimics similar to set 3, with the two Cys residues placed on amino acid numbers 1 and 8, which were also linked with mP2 CLIPS (set 4). Binding of Mab 4H12 to the described peptides is quantified using an ELISA-type read out.
Figure 1 Schematic representation of the four epitope mapping approaches to identify peptide-based mimics of recombinant bovine somatotropin (rbST) that bind to the monoclonal antibody 4H12. […]

MAb 4H12 [2] = assay: MIPA binding of MAb 4H12 to peptide- or rbST-coupled microspheres; details: peptide or protein coupled to microspheres, MAGPIX read-out
Experimental: (§1) Microsphere preparation was executed according to Bremer et al. with the exception that Magplex® microsphere sets instead of seroMAP microspheres were used. During the procedure, microspheres were trapped using a magnet (1 min) and after removal of the supernatant, trapped microspheres were resuspended by vortexing (1 min). The peptides pep, pep-K, pep-peg, pep-aca and rbST standard were coupled to the different internally dyed microsphere sets, i.e., microsphere set numbers 012, 043, 029, 038 and 064, respectively (Figure 2). The internal dye gives the microsphere set a unique spectral signature, and consequently, a unique read-out region. For each microsphere set, 2.5 × 10^6 microspheres were covalently coupled with a two-step carbodiimide reaction using 500 μL of 100 µg mL^−1 peptide in boric acid solution (100 mM boric acid, 1M NaCl, adjusted to pH 8.3 with NaOH), and 100 µg mL^−1 rbST in MES buffer (50 mM MES pH 5.0). After coupling, the microspheres were stable for over 1 year when stored in a blocking buffer (PBS, 0.1% BSA, 0.02% Tween-20 and 0.05% NaN3) at 2–8 °C in the dark until use, with the exception for the microspheres measured with XPS, which were stored in Milli-Q water until use.
(§2) In this procedure, all dilution and washing steps were executed using PBST containing 0.1% BSA. In total, 100 μL of rbST, eST, pST and hST standard solution or injection preparation extract were added to a low bind 96-well microtiter plate. Next, 10 μL of 20-, 2-, 2-, 1- and 0.7 ng mL^−1 antibody for microspheres coated with, respectively, pep, pep-peg, pep-aca, k-pep and rbST and microspheres (10 μL diluted suspension containing about 1250 microspheres per microsphere set) were added to each well. The microtiter plate was incubated for 20 min on a microtiter plate shaker to allow competition between the immobilized rbST epitope peptides or protein on the microspheres and the somatotropin (ST) present in the solution for the available antibody binding sites. After incubation, the microspheres were trapped by a magnet and washed twice. After washing, a 125 μL, 625-times diluted PE labeled Goat anti Mouse antibody was added and incubated for 20 min on a microtiter plate shaker. After this incubation step, microspheres were trapped with a magnet, supernatant removed and 125 µL PBST containing 0.1% BSA added. The plate was briefly mixed on the microtiter plate shaker before measuring on the imaging planar array analyzer (MAGPIX).

MAb 4H12 [3] = assay: Inhibition MIPA (microsphere peptide-based immunoassay, indirect competitive format, MAGPIX); type: binding; details: for recognition / cross-reactivity of somatotropins with MAb 4H12: calibration curves up to 100 µg mL^-1, PBST/BSA; for concentration of full inhibition: somatotropin as competitor in PBST/BSA
Experimental: as §1, §2
Figure 3 Summarized workflow and assay principle of the indirect competitive assay format for somatotropins. In absence of rbST (upper part), MAb 4H12 binds to the peptide-coated microspheres, which enables binding of the PE coupled secondary antibody. The presence of PE results in a high signal in the imaging planar array analyzer. In presence of rbST (lower part), MAb 4H12 binds to the rbST in solution. […] As no PE is present, this will result in a low signal in the imaging planar array analyzer.

MAb 4H12 [4] = assay: Surface plasmon resonance, MAb 4H12 on immobilized rbST or pep-peg; type: binding
From the text: (§3) Although the literature often describes the need for spacers in peptide-based biorecognition assays, in our assay format based on the MAb 4H12 and the peptide 115[…]125 biorecognition pair, no spacers were required. […] The presence of peptides on the microspheres was proven by XPS measurements (Supplementary Materials, Figure S2). In addition, the specificity was compared by initial surface plasmon resonance (SPR) experiments, where the pep-peg peptide was coupled to one microfluidic channel and rbST to another channel of the sensor surface. The sensor channels were incubated with two different rbST-induced monoclonal antibodies, MAb 4H12, which specifically binds the peptide 115[…]125 and MAb 5E2, which recognizes another, yet unknown, epitope. […] Next, MAb 4H12 concentrations were optimized for the microsphere peptide-based immunoassay to a dilution factor corresponding to a signal intensity of 1000 MFI for the blank standard (dilution buffer, Supplementary Materials, Table S2). […] The antibody concentrations in combination with the respective microspheres were used to determine the sensitivity of MAb 4H12 for the determination of full rbST-protein in standard solutions, as shown in Figure 4. For bot, rbST-protein and peptide immobilized microspheres, typical dose-response curves were obtained, with IC50 values of, respectively, 0.20 µg mL^−1 and 0.11 µg mL^−1.

MAb 5E2 = assay: Surface plasmon resonance, MAb 5E2 on immobilized rbST or pep-peg; type: binding
From the text: as §3

dairy cows = details: according to the manufacturer's protocol; cited from earlier work
From the text: RbST is a 191 amino acid long protein hormone that enhances growth and lactating performance in cattle. When administered to dairy cows according to the manufacturer’s protocol, milk production can increase up to 25% [11]. The use of rbST for milk-enhancing properties is approved in several countries, but is banned in the European Union. To control this ban, a strategy to detect rbST misuse in the EU has been described by Smits et al.. The strategy for rbST in serum and milk from dairy cows is based on the digestion of the proteins and detection of rbST-specific peptides formed ...

[5] = microspheres coupled with pep, n = 2

Molecule | binding of MAb 4H12 to coupled microspheres (MAb 4H12 [2]) | recognition / cross-reactivity of somatotropins with MAb 4H12 (MAb 4H12 [3]; [5]) | concentration of full inhibition (MAb 4H12 [3]; [5]) | further results
DLEEGILALMR [pep] | showed binding | – | – | binding between MAb 4H12 and epitope sequence (MAb 4H12 [1]): binding
MRIEGLADLEL [pep-scr, linear peptide scrambled] | did not show any binding | – | – | binding of MAb 4H12 to coupled microspheres (MAb 4H12 [2]; listed as scrambled peptide): no binding occurred
hST: human Somatotropin from Sigma-Aldrich | – | not able to recognize and bind | – | –
B1 | showed binding | – | – | SPR binding of MAb 4H12 (MAb 4H12 [4]): Both MAbs showed binding; SPR binding of MAb 5E2 (MAb 5E2): Both MAbs showed binding; increase of milk production (dairy cows): up to 25%; IC50 of rbST in inhibition MIPA, per microsphere set (MAb 4H12 [3]; competitor rbST in PBST/0.1% BSA, label = peptide or protein coupled to the microspheres, MAb 4H12 20, 2, 2, 1, 0.7 ng mL^-1 for pep, pep-peg, pep-aca, pep-K, rbST, 20 min incubation, GAM-PE, MAGPIX, four-parameter fit, n = 3): 0.20 µg/mL; inhibition of MAb 4H12 at 1 µg mL^-1 (MAb 4H12 [3]; somatotropin as competitor at 1 µg mL^-1 in PBST/BSA, microspheres coupled with pep, n = 2): almost completely inhibits
B2 | – | cross-reactivity was seen | around 100 µg mL^-1 | –
B3 | – | cross-reactivity was seen | around 100 µg mL^-1 | –
